# Laboratory results from the RNAGym collection of RNA variant scans (doi:10.1073/pnas.2313332121).
# This sample holds only a part of the variants without activity.
# B1: TPR 5TU (parent)
# chain: GGAUCUUCUCGAUCUAACAAAAAAGACAAAUCUGCCACAAAGCUUGAGAGCAUCUUCGGAUGCAGAGGCGGCAGCCUUCGGUGGCGCGAUAGCGCCAACGUUCUCAACUAUGACACGCAAAACGCGUGCUCCGUUGAAUGGAGUUUAUCAUG
# Variants of: B1
# Assay: polymerase ribozyme fitness, log enrichment relative to wild type (log ratio); higher = more active; in vitro selection for triplet polymerase activity
# Procedure, shortened: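 Genotype fitness is the logarithm of its enrichment divided by wild-type enrichment, using inverse-variance-weighted averages of replicates. That logarithm is base 2. Enrichment was measured by Illumina sequencing of input and output libraries from one triplicate in vitro selection round, with frozen incubation at −7 °C, on PCR-built, transcribed mutant libraries of each subunit of a heterodimeric triplet polymerase ribozyme, retaining genotypes with ≥10 input reads and ≥1 read per output.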
row,Variant,polymerase ribozyme fitness (log ratio)
1,A21C C27U C35U G68A C96A A147G,≤ -4.2
2,A21C A52C C57U A64C A66C G71U A91U G100A C103U U127G,≤ -4.2
3,A19U G58U C87U A119U,-2.02
4,A20U G46U A98G C99U,-3.31
5,A20C A24U C57U,-0.111
6,A19U C51U A91U G94A G133A A137C,≤ -4.2
7,A19U A22G A52C C114A A142G,≤ -4.2
8,A19G C35U G58A C85A G143A,-3.66
9,A19G U53A C57U C96A G100C U134C G143C,≤ -4.2
10,A20U A52G,-2.02
11,A19U U31A A41G C87G G124U,-4.17
12,A19U A21U A23U G67C G88A U102C A150G,≤ -4.2
13,A20C U53A U56G C85A A119C,-4
14,A20U C43A C69U A138G,≤ -4.2
15,A19U A23U U77C C87U A106U C108G C123G,-4.07
16,A20U A22G A52U A73G C85U G124C,-3.91
17,A21C C57A A91G C99U G140C,≤ -4.2
18,A20U A29G G42A C57A A91G G94C,≤ -4.2
19,A19G U45G U90G G124A,≤ -4.2
20,A20U G84U A120U,-2.73
21,A21G A22G A47C C51A G74C C75U U102G C132G G143C,≤ -4.2

row,Variant,polymerase ribozyme fitness (log ratio)
1,A20U G84U C108U,≤ -4.2
2,A19U A30U C72G C96U A106G A122C G140U,≤ -4.2
3,A20U C35U U144C,-2.73
4,A19G C38A U102C C108U,≤ -4.2
5,A19U A22G C27G A30U G88C C95U,≤ -4.2
6,A20U A30U A39G C75A,≤ -4.2
7,A20U C57G G88U A89U,≤ -4.2
8,A19U U55C C57A A66C C85G U109G,≤ -4.2
9,A19G G25U G50A C93U A120G,≤ -4.2
10,A20U A22C C87A G88C A98U A107G,≤ -4.2
11,A20U G67A,-3.89
12,A21C A23G C51G U55A U101A,≤ -4.2
13,A20G C36U C85G,-4.17
14,A20U A23U A37U C51U C69A C105U,≤ -4.2
15,A19G C27U G50A,-4.19
16,A20U A41U,-2.17
17,A20U A41C,-2.09
18,A19U C35U G86A A119G G141A,-3.69
19,A20C G68C G83C A89U U102A G140U,≤ -4.2
20,A19G G48A G62U A73G C96A A119G,≤ -4.2
21,A19U A20U C85U C118U,-2.63

row,Variant,polymerase ribozyme fitness (log ratio)
1,A20G C43U U55A C85U C96G A98U A107G,≤ -4.2
2,A19U A40C G94A A107U,≤ -4.2
3,A19U G34A C38U G59C C95A C116A,-4.19
4,A19U A21U A39G C43A U45A A91G,≤ -4.2
5,A20C G50A C63A C85U G117U,-1.09
6,A19G C35U C51U C96U,-1.35
7,A19U U55G G88U U104G,≤ -4.2
8,A20U A29G C43U C75U U77G G94C U109G A113U,≤ -4.2
9,A19U C85U A107G,≤ -4.2
10,A19U A40G A110C,≤ -4.2
11,A21C C87A G141C,≤ -4.2
12,A21G A24U G50A C57A C87G C93G A110U A121U,-4.06
13,A20C C85A G126C,0.52
14,A20C U53C G59A G136C,-3.81
15,A19U G92U A150C,-2.67
16,A21C A41U C85U C95U,-1.34
17,A21C C57G C75A A98G A107U C123U A142U G143C,≤ -4.2
18,A20G G67U,-2.82
19,A20U A49G,-1.2
20,A20G A24U C87U A107G,≤ -4.2
21,A20G G83U A89G C99U G141A U146A,≤ -4.2

row,Variant,polymerase ribozyme fitness (log ratio)
1,A21G A22U U53A C85G C132G,≤ -4.2
2,A20C C54A G84U C116U,-3.08
3,A20G U78G C93U A110U U135G A137G,≤ -4.2
4,A19U A28U G83C,≤ -4.2
5,A21C U53A C54G C76G C103G G133U,≤ -4.2
6,A19U U31C C132G,-2.74
7,A20C C85G A113U,-3.57
8,A20U G92U U104G,-1.82
9,A19G A49U U55A C96U,-1.84
10,A20C U44C U55G C69A,≤ -4.2
11,A21C A89U U104A,-0.361
12,A20G C87U,-1.06
13,A19U A21U A30U A40C U55A C96U G126A C132U G143U,≤ -4.2
14,A19U G59A G88U A89G G94U A113G,≤ -4.2
15,A20U G141C,-1.4
16,A19G C79G,≤ -4.2
17,A20U A91U A115U,-4.17
18,A21C A24C A52C C79A C93U A150U G152C,≤ -4.2
19,A19G C38U C76G C93A C103A G143U,≤ -4.2
20,A20C C38G,-1.37
